± gives the standard error.
B1: library; numbered along this chain (parent)
chain: MATDAALRRLLRLHRTEIAVAVDSAFPLLHALADHDVVPEDKFQETLHLKEKEGCPQAFHALLSWLLTQDSTAILDFWRVLFKDYNLERYGRLQPILDSFPKDVDLSQPRKGRKPPAVPKALVPPPRLPTKRKASEEARAAAPAALTPRGTASPGSQLKAKPPKKPESSAEQQRLPLGNGIQTMSASVQRAVAMSSGDVPGARGAVEGILIQQVFESGGSKKCIQVGGEFYTPSKFEDSGSGKNKARSSSGPKPLVRAKGAQGAAPGGGEARLGQQGSVPAPLALPSDPQLHQKNEDECAVCRDGGELICCDGCPRAFHLACLSPPLREIPSGTWRCSSCLQATVQEVQPRAEEPRPQEPPVETPLPPGLRSAGEEVRGPPGEPLAGMDTTLVYKHLPAPPSAAPLPGLDSSALHPLLCVGPEGQQNLAPGARCGVCGDGTDVLRCTHCAAAFHWRCHFPAGTSRPGTGLRCRSCSGDVTPAPVEGVLAPSPARLAPGPAKDDTASHEPALHRDDLESLLSEHTFDGILQWAIQSMARPAAPFPS

Variants of: B1
Assay: AIRE transcriptional activation functional score (insulin promoter-GFP; nonsense median 0, synonymous median 1) (normalised score); higher = higher AIRE activity (more reporter activation)
Conditions: with insulin promoter-GFP reporter in HEK293
Experimental: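 Deep mutational scan of full-length human AIRE (codon-optimized cDNA, DT-POPCode NNN libraries over three regions) integrated at a Bxb1 landing pad in HEK293 cells carrying an insulin core promoter-GFP reporter at a Flp-In site. Cells were sorted for the top 10% GFP about 14 days after transfection. Variant frequency log-ratios (select vs non-select, TileSeq) were rescaled so that the nonsense median is 0 and the synonymous median is 1, then averaged over biological replicates.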

P109S and P357S are within error of each other in “AIRE transcriptional activation functional score” value: 1.1 ± 0.75 for the first, 0.935 ± 0.12 for the second.

Q349D and H415A are within error of each other in “AIRE transcriptional activation functional score” value: 0.985 ± 0.1 for the first, 1.08 ± 0.2 for the second.

Compared with V345A, V345F is higher in “AIRE transcriptional activation functional score” value: 0.719 ± 0.2 for the first, 1.36 ± 0.035 for the second.

A6M and A170E are within error of each other in “AIRE transcriptional activation functional score” value: 0.372 ± 0.17 for the first, 0.67 ± 0.35 for the second.

E363I and E363A are within error of each other in “AIRE transcriptional activation functional score” value: 1.02 ± 0.095 for the first, 1.1 ± 0.16 for the second.

E363K and A261V are within error of each other in “AIRE transcriptional activation functional score” value: 1.09 ± 0.079 for the first, 1.13 ± 0.093 for the second.

A261L and A261T are within error of each other in “AIRE transcriptional activation functional score” value: 0.746 ± 0.25 for the first, 1.07 ± 0.19 for the second.

Going from V301G to V301H, the “AIRE transcriptional activation functional score” value rises from 1.08 ± 0.16 to 1.56 ± 0.16.

Going from F318P to F318N, the “AIRE transcriptional activation functional score” value rises from 1.21 ± 0.16 to 1.45 ± 0.063.

C434W and C434Q are within error of each other in “AIRE transcriptional activation functional score” value: -0.0557 ± 0.096 for the first, 0.225 ± 0.23 for the second.

Going from C314E to L327K, the “AIRE transcriptional activation functional score” value falls from 0.893 ± 0.12 to 0.524 ± 0.14.

First: L327N
Second: D238Y
The “AIRE transcriptional activation functional score” value of the first is higher: 1.37 ± 0.07 for the first, 1.12 ± 0.07 for the second.

A258H and A258G are within error of each other in “AIRE transcriptional activation functional score” value: 1.05 ± 0.11 for the first, 0.943 ± 0.19 for the second.

Y90P and G421T are within error of each other in “AIRE transcriptional activation functional score” value: 0.0423 ± 0.54 for the first, 0.472 ± 0.45 for the second.

Compared with G421K, G421C is higher in “AIRE transcriptional activation functional score” value: 0.558 ± 0.099 for the first, 1.58 ± 0.19 for the second.

Compared with L470N, L470W is higher in “AIRE transcriptional activation functional score” value: 1.06 ± 0.046 for the first, 1.38 ± 0.048 for the second.

Compared with Q94R, H454A is lower in “AIRE transcriptional activation functional score” value: 1.65 ± 0.54 for the first, -0.16 ± 0.2 for the second.

S169T and P331F are within error of each other in “AIRE transcriptional activation functional score” value: -0.214 ± 1.1 for the first, 0.62 ± 0.15 for the second.

Going from V226N to V226L, the “AIRE transcriptional activation functional score” value rises from -0.139 ± 0.091 to 1.08 ± 0.24.

Going from E522L to L67W, the “AIRE transcriptional activation functional score” value rises from -0.299 ± 0.18 to 0.0659 ± 0.065.

First: G219P
Second: G408Q
The “AIRE transcriptional activation functional score” value of the first is lower: 0.556 ± 0.43 for the first, 1.29 ± 0.12 for the second.

Compared with E270K, G218L is higher in “AIRE transcriptional activation functional score” value: 0.735 ± 0.032 for the first, 1.01 ± 0.17 for the second.

P481T and P481E are within error of each other in “AIRE transcriptional activation functional score” value: 0.704 ± 0.14 for the first, 0.44 ± 0.17 for the second.

Q534R and L97N are within error of each other in “AIRE transcriptional activation functional score” value: 0.171 ± 0.18 for the first, -0.0633 ± 0.093 for the second.

L97S and L97D are within error of each other in “AIRE transcriptional activation functional score” value: -0.186 ± 0.55 for the first, 0.828 ± 0.47 for the second.

Going from K245L to E51W, the “AIRE transcriptional activation functional score” value falls from 0.453 ± 0.31 to -0.495 ± 0.11.

E51S and F77S are within error of each other in “AIRE transcriptional activation functional score” value: -0.885 ± 0.57 for the first, -0.182 ± 0.39 for the second.

First: F77R
Second: A138R
The “AIRE transcriptional activation functional score” value of the first is lower: -0.0859 ± 0.37 for the first, 1.19 ± 0.23 for the second.

A138Q and A58I are within error of each other in “AIRE transcriptional activation functional score” value: 0.334 ± 0.66 for the first, -0.388 ± 0.57 for the second.

First: A58H
Second: Y394W
The “AIRE transcriptional activation functional score” value of the first is lower: -0.263 ± 0.4 for the first, 0.755 ± 0.1 for the second.

Y394C and D36Y are within error of each other in “AIRE transcriptional activation functional score” value: 0.576 ± 0.24 for the first, 0.501 ± 0.13 for the second.

First: D36G
Second: P56N
The “AIRE transcriptional activation functional score” value of the first is higher: 0.788 ± 0.32 for the first, 0.0217 ± 0.061 for the second.

P56S and S217P are within error of each other in “AIRE transcriptional activation functional score” value: 0.484 ± 0.56 for the first, 0.572 ± 0.49 for the second.

S217L and V348Q are within error of each other in “AIRE transcriptional activation functional score” value: 0.613 ± 0.28 for the first, 0.65 ± 0.4 for the second.

Going from Y85R to Q426K, the “AIRE transcriptional activation functional score” value rises from -0.639 ± 0.52 to 1.16 ± 0.051.

Q426E and V199G are within error of each other in “AIRE transcriptional activation functional score” value: 1.07 ± 0.094 for the first, 1.09 ± 0.3 for the second.

First: I96M
Second: Q189C
The “AIRE transcriptional activation functional score” value of the first is lower: -0.371 ± 0.17 for the first, 0.0413 ± 0.066 for the second.

T151R and P39R are within error of each other in “AIRE transcriptional activation functional score” value: 0.807 ± 0.43 for the first, 0.0519 ± 0.47 for the second.

A399T and A399W are within error of each other in “AIRE transcriptional activation functional score” value: 0.845 ± 0.26 for the first, 1.2 ± 0.14 for the second.

P116V and K294Q are within error of each other in “AIRE transcriptional activation functional score” value: 0.906 ± 0.43 for the first, 1.43 ± 0.11 for the second.

First: V436D
Second: V436K
The “AIRE transcriptional activation functional score” value of the first is lower: 0.874 ± 0.21 for the first, 1.21 ± 0.1 for the second.

Compared with V436F, R272M is higher in “AIRE transcriptional activation functional score” value: 1.11 ± 0.13 for the first, 1.31 ± 0.061 for the second.
